The source of these data is FireProtDB (doi:10.1093/protein/gzi067).

The chains are these.
B1: Cytochrome b5, P00171 (parent)
chain: MAEESSKAVKYYTLEEIQKHNNSKSTWLILHYKVYDLTKFLEEHPGGEEVLREQAGGDATENFEDVGHSTDARELSKTFIIGELHPDDRSKITKPSESIITTIDSNPSWWTNWLIPAISALFVALIYHLYTSEN

In the series the parent is B1. Particulars: Bos taurus, pH 7, 25 °C, CD, MOPS 30 mM, reversible: yes (partial), structure 1CYO, whole UniProt chain shown.

With MAEESSKAVKYYTLEEIQKHNNSKSTWLILHYKVYDITKFLEEHPGGEEVLREQAGGDATENFEDVGHSTDARELLKTFIIGELHPDDRSKITKPSESIITTIDSNPSWWTNWLIPAISALFVALIYHLYTSEN [S76L L37I], where the note is “GdnHCl”, the “ddG of mutation (higher = less stable)” value is -0.5 kcal/mol, the “denaturant midpoint (higher = more stable)” value (“denaturant midpoint” for short) is 1.9 M and the unfolding free energy came to 3.5 kcal/mol. Besides, the “denaturant midpoint” value (GdnSCN) worked out at 1.8 M.
Regarding MAEESSKAVKYYTLEEIQKHNNSKSTWLILHYKVYDLTKFLEEHPGGEEVLREQAGGDATENFEDVGHSTDARELLKTFIIGELHPDDRSKITKPSESIITTIDSNPSWWTNWLIPAISALFVALIYHLYTSEN [S76L], under “GdnHCl”, the “ddG of mutation (higher = less stable)” value is -0.8 kcal/mol, the “denaturant midpoint” value was found to be 2.3 M and the unfolding free energy was 3.8 kcal/mol. Under “GdnSCN”, the “denaturant midpoint” value was found to be 1.59 M.
